Substrate in data set [1]: Nc1nc(N)c2ncn([C@@H]3O[C@H](CO)[C@@H](O)[C@H]3O)c2n1
Put plainly: (§1) Kinetic parameter in calf intestine adenosine deaminase.

Substrate in data set [2]: Nc1ncnc2c1nnn2[C@H]1C[C@H](O)[C@@H](CO)O1
The description is as §1.

Substrate in data set [3]: Nc1ncnc2c1nnn2[C@@H]1O[C@H](CO)[C@@H](O)[C@H]1O
Described as §1.

Substrate in data set [4]: COc1ncnc2c1ncn2[C@@H]1O[C@H](CO)[C@@H](O)[C@@H]1O
The description is as §1.

Substrate in data set [5]: COc1ncnc2c1nnn2[C@@H]1O[C@H](CO)[C@@H](O)[C@H]1O
Described as §1.

Substrate in data set [6]: COC[C@H]1O[C@@H](n2nnc3c(O)nc(N)nc32)[C@H](OC)[C@@H]1OC
Described as §1.

Substrate in data set [7]: Nc1nc(F)nc2c1ncn2[C@@H]1O[C@H](CO)[C@@H](O)[C@H]1O
The description is as §1.

Substrate in data set [8]: COC[C@H]1O[C@@H](n2cnc3c(O)nc(N)nc32)[C@H](OC)[C@@H]1OC
Described as §1.

Substrate in data set [9]: Nc1nc(F)nc2c1nnn2C1O[C@H](CO)[C@@H](O)[C@H]1O
The data set is described as §1.

The values below come from ChEMBL document CHEMBL1122375, “Synthesis and biological evaluation of 2-fluoro-8-azaadenosine and related compounds” (J Med Chem, 1983).

B1: Adenosine deaminase (Bos taurus), P56658 (protein)
chain: MAQTPAFNKPKVELHVHLDGAIKPETILYYGRKRGIALPADTPEELQNIIGMDKPLSLPEFLAKFDYYMPAIAGCREAVKRIAYEFVEMKAKDGVVYVEVRYSPHLLANSKVEPIPWNQAEGDLTPDEVVSLVNQGLQEGERDFGVKVRSILCCMRHQPSWSSEVVELCKKYREQTVVAIDLAGDETIEGSSLFPGHVKAYAEAVKSGVHRTVHAGEVGSANVVKEAVDTLKTERLGHGYHTLEDATLYNRLRQENMHFEVCPWSSYLTGAWKPDTEHPVVRFKNDQVNYSLNTDDPLIFKSTLDTDYQMTKNEMGFTEEEFKRLNINAAKSSFLPEDEKKELLDLLYKAYGMPSPASAEQCL
For orientation: Km means the concentration of substrate that gives half-maximal velocity. For B1, the Km was 33 µM in data set [1]; 220 µM in data set [2]; 250 µM in data set [3]; 50 µM in data set [4]; 140 µM in data set [5]; 22 µM in data set [6]. In addition, the Michaelis constant (Km) in [7] turned out to be 81 µM; in data set [8], 42 µM; in data set [9], 250 µM.
